Reference: article PMC2797707 (Journal of the American Chemical Society, 2009)

B1: H61A Mycobacterium tuberculosis CsoR (natural protein)
chain: MSKELTAKKRAALNRLKTVRGHLDGIVRMLESDAYCVDVMKQISAVQSSLERANRVMLHNALETCFSTAVLDGHGQAAIEELIDAVKFTPALTGPHARLGGAAVGESATEEPMPDASNM

Assays:
[1] = tested on: CsoR H61A (Mycobacterium tuberculosis); experiment: fluorescence anisotropy; conditions: pH 7.0, 0.2 M NaCl, 2 mM DTT, 25 °C (buffer not stated in the material)
[2] = target: the molecule itself

Row | Molecule | Ka (M-1 (A2 (so in the source); ≤)) [1] | stoichiometry N [2]
1 | cso operator DNA | < 1e+10 | 
2 | B1 |  | 4
